US6140466, “Zinc finger protein derivatives and methods therefor” (The Scripps Research Institute)

Columns and labels:
[1] = biological target: MBP-C7 (synthetic (Zif268 variant, mouse), UniProt P08046); assay: EMSA; 0.1 mM ZnCl2, RT
[2] = biological target: TFIIIA zf1-3 (UniProt P03001 P03001:33-123); assay: EMSA; ambient temperature; complete 23 bp sequence not given; details: tags: first three zinc fingers of TFIIIA; label: 32P
Text: An experiment was designed to determine whether the binding of this polypeptide to its recognition sequence, placed close to an active RNA polymerase promoter, would inhibit the activity of that promoter in vitro. The following experiments were done to provide such a test system. A 23 bp oligonucleotide (Liao, et al., 1992, supra) containing the 13 bp recognition sequence for zf1–3 was cloned into the polylinker region of plasmid pBluescript SK+ (Stratagene, La Jolla, Calif.), near the promoter sequence for T7 RNA polymerase. The parent plasmid was digested with the restriction enzyme EcoRV and, after dephosphorylation with calf intestinal alkaline phosphatase, the phosphorylated 23 bp oligonucleotide was inserted by ligation with T4 DNA ligase. The ligation product was used for transformation of DH5α *E. coli* cells. Clones harboring 23 bp inserts were identified by restriction digestion of miniprep DNA. The success of cloning was also verified by DNA sequence analysis. The DNA binding activity of the preparation of recombinant zf1–3 was also determined by gel mobility shift analysis with a 56 bp radiolabeled EcoRI/XhoI restriction fragment derived from the cone containing the binding site for zf1–3 and with the radiolabeled 23 bp oligonucleotide. Gel shift assays were done as described (Liao, et al., supra; Fried, et al., *Nucl. Acids., Res.,* 9:6505, 1981). […]

[3] = biological target: (C7 finger)x3 (synthetic (Zif268 variant)); assay: SPR; details: hairpin
[4] = biological target: Zif268 fingers 1-3 (Mus musculus, UniProt P08046 SEQ:1-91); assay: SPR; zinc buffer (90 uM ZnCl2, 5 mM DTT); Kd from kon/koff
[5] = biological target: Zif268 variant C7 (synthetic (Zif268 variant, mouse), UniProt P08046); assay: SPR; 5-fold slower dissociation; Kd in FIG. 11 only

TFIIIA zf1-3, sequence (P03001 33-123, one chain of several): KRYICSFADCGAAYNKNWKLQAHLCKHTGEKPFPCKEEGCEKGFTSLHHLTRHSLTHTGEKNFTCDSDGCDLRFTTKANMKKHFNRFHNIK
(C7 finger)x3 (synthetic (Zif268 variant)), sequence (chain, as listed by the source): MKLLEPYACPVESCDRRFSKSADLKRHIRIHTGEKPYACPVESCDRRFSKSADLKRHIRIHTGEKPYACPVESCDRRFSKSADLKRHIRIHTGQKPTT

B1: C7 site probe (dsDNA)
DNA 1: GATGTATGTAGCGTGGGCGTAAGTAATGC
DNA 2: GCATTACTTACGCCCACGCTACATACATC
Kd [1]: 31.8 nM

B2: zf1-3 binding site oligo (23 bp containing 13 bp site) (dsDNA)
DNA 1: TGGATGGGAGACC
DNA 2: GGTCTCCCATCCA
binding result [2]: binds

CCTCGCCGCCGCGGGTTTTCCCGCGCCCCCGAGG (structured_DNA) [GCG-GCG-GCG hairpin]
Kd [3]: 9 nM

CCTGCGTGGGCGCCCTTTTGGGCGCCCACGCAGG (structured_DNA) [Z268N consensus hairpin]
Kd [4]: 6.5 nM
binding signal [5]: 13 fold tighter than Zif268
